Assay results from article PMC4306973 (Scientific Reports, 2015).
Several values for one entry are separate records, joined by “and”; a condition that tells them apart may be missing. Equal entries are not always repeated.

Biological target: the molecule itself
Test: SEC

B1: vanillin dehydrogenase from Corynebacterium glutamicum ATCC13032 (VDH_(ATCC13032)) (enzyme, UniProt Q8NMB0 1-484, looked up)
chain: MTATFAGIDATKHLIGGQWVEGNSDRISTNINPYDDSVIAESKQASIADVDAAYEAAKKAQAEWAATPAAERSAIIYRAAELLEEHREEIVEWLIKESGSTRSKANLEITLAGNITKESASFPGRVHGRISPSNTPGKENRVYRVAKGVVGVISPWNFPLNLSIRSVAPALAVGNAVVIKPASDTPVTGGVIPARIFEEAGVPAGVISTVAGAGSEIGDHFVTHAVPKLISFTGSTPVGRRVGELAINGGPMKTVALELGGNAPFVVLADADIDAAAQAAAVGAFLHQGQICMSINRVIVDAAVHDEFLEKFVEAVKNIPTGDPSAEGTLVGPVINDSQLSGLKEKIELAKKEGATVQVEGPIEGRLVHPHVFSDVTSDMEIAREEIFGPLISVLKADDEAHAAELANASDFGLSAAVWSKDIDRAAQFALQIDSGMVHINDLTVNDEPHVMFGGSKNSGLGRFNGDWAIEEFTTDRWIGIKRS
In the case of B1, the “stoichiometry N” value is reported as 4 and 3 and 2.
